Assay [1] deals with SARS-CoV-2 full length spike protein, V367F mutant (SARS-CoV-2, UniProt P0DTC2 14-1273).
For assay [2], the target named is SARS-CoV-2 full length spike protein, D614G mutant (SARS-CoV-2, UniProt P0DTC2 14-1273).
For assay [3], the target named is SARS-CoV-2 full length spike protein, D614G mutant, expressed on the surface of CHO cells (SARS-CoV-2, UniProt P0DTC2 14-1273).
Assay [4] addresses SARS-CoV-2 full length spike protein, V367F mutant, expressed on the surface of CHO cells (SARS-CoV-2, UniProt P0DTC2 14-1273).

Data on 19 molecules can be found in patent US20210292393A1 (published 2021).

B1: antibody 308 (antibody, V domains shown)
VH: QLQLQESGPGLVKPSETLSLTCSVSGGSISSSSYHWGWIRQPPGKGLEWIGSIYYSGSTYYNPSLKSRVTISVDTSKNQFSLKLRSVTAADTAVYYCAGLRVVITFGGVIPKGGAFDIWGQGTMVTVSS
VL: QSALTQPASVSGSPGQSITISCTGTSSDVGGYNYVSWYQQHPGKAPKLMIYDVSNRPSGVSNRFSGSKSGNTASLTISGLQAEDEADYYCSSYTSSSTVVFGGGTKLTVL
In the case of B1, the “median fluorescence intensity, fold over isotype control” value (“median fluorescence intensity, fold” for short) was 33.4 fold over isotype in assay [1] and 7.93 fold over isotype in assay [2].

B2: antibody 272 (antibody, V domains shown)
VH: QVQLVQSGAEVKKPGASVKVSCKASGYTFTTYYMHWVRQAPGQGLEWMGIINPSGGSASYAQKFQGRVTMTRDTSTSTVYMELSSLRSEDTAVYYCARDHTLVNGDYEYYYGMDVWGQGTTVTVSS
VL: SYELTQPPSVSVSPGQTARITCSGDALPKQYAYWYQQKPGQAPVSVIYKDSERPSGIPERISGSSSGTTVTLTISGVQAEDEADYYCQSADSSGTYLVFGGGTKLTVL
Turning to B2, the “median fluorescence intensity, fold” value in assay [1] amounted to 40.4 fold over isotype; in assay [2], 79.7 fold over isotype.

B3: antibody 261 (antibody, V domains shown)
VH: QVQLVESGGGVVQPGRSLRLSCAASGFTFSSYAMHWVRQAPGKGLEWVAVISYDGSNKYYADSVKGRFTISRDNSKNTLYLQMNSLRAEDTAVYYCARDEAYYDILTGYINAPKNYYYYGMDVWGQGTTVTVSS
VL: DIQMTQSPSSLSASVGDRVTITCRASQGIRNDLGWYQQKPGKAPKRLIYAASSLQSGVPSRFSGSGSGTEFTLTISSLQPEDFATYYCLQHNSYPFTFGPGTKVDIK
As for B3, the “median fluorescence intensity, fold” value in assay [1] was determined as 59.9 fold over isotype; in assay [2], 87 fold over isotype.

B4: antibody 356 (antibody, V domains shown)
VH: QVQLVQSGAEVKKPGASVKVSCKASGYTFTSYGISWVRQAPGQGLEWMGWISAYHGNTNYAQKLQGRVTMTTDTSTSTAYMELRSLRSDDTAVYYCARVGLWWLGHADAFDIWGQGTMVTVSS
VL: DIQMTQSPSSLSASVGDRVTITCRASQGIRNDLGWYQQKPGKAPKRLIYAASSLQSGVPSRFSGSGSGTEFTLTISSLQPEDFATYYCLQHNSYPLTFGGGTKVEIK
As to B4, the entries for the “median fluorescence intensity, fold” value in assay [3] and in assay [4] were 90.8 fold over isotype and 60.4 fold over isotype, respectively.

B5: antibody 287 (antibody, V domains shown)
VH: QLQLQESGPGLVKPSETLSLTCTVSGGSISSSSYYWGWIRQPPGKGLEWIGSIFYSGSTYYNPSLKSRVTIFVDTSKNQFSLKLSSVTAADTAVYYCARFDYQVVDLTGFDYWGQGTLVTVSS
VL: DIQMTQSPSSLSASVGDRVTITCRASQGIRNDLGWYQQKPGKAPKRLIYAASSLQSGVPSRFSGSGSGTEFTLTIRSLQPEDFATYYCLQYNSYPLTFGGGTKVEIK
B5: the figures for the “median fluorescence intensity, fold” value in assay [1] and in assay [2] were 60.9 fold over isotype and 87.4 fold over isotype, respectively.

B6: antibody 314 (antibody, V domains shown)
VH: EVQLVESGGGLVKPGGSLRLSCAASGFTLSSYSMNWVRQAPGKGLEWVSCISSSSSYIYYADSVKGRFTISRDNAKNSLYLQMNSLRAEDTAVYYCASDPLDIVVVPAARDYYYYGMDVWGQGTTVTVSS
VL: not shown
On to B6, for which the “median fluorescence intensity, fold” value in assay [3] stood at 30.4 fold over isotype; in assay [4], 19.6 fold over isotype.

B7: antibody 357 (antibody, V domains shown)
VH: QVQLVQSGAEVKKPGSSVKVSCKASGGTFSSYAISWVRQAPGQGLEWMGRIIPILGIANYAQKFQGRVTITADKSTSTAYMELSSLRSEDTAVYYCARGPIAVAGIGPWFDPWGQGTLVTVSS
VL: QSVLTQPPSVSAAPGQKVTISCSGSSSNIGNNYVSWYQQLPGTAPKLLIYDNNKRPSGIPDRFSGSKSGTSATLGITGLQTGDEADYYCGTWDSSLSAVVFGGGTKLTVL
With B7, the entries for the “median fluorescence intensity, fold” value in assay [3] and in assay [4] were 5.37 fold over isotype and 28 fold over isotype, respectively.

B8: antibody 346 (antibody, V domains shown)
VH: EVQLVQSGAEVKKPGESLKISCKGSGYSFTSYWIGWVRQMPGKGLEWMGIIYPGDSDTRYSPSFQGQVTISADKSISTAYLQWSSLKASDTAMYYCARHGPQDGYSSSWYLDYWGQGTLVTVSS
VL: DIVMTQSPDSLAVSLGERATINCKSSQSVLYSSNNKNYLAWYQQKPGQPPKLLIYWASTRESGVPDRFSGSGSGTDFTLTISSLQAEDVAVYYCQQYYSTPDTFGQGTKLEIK
Regarding B8, the entries for the “median fluorescence intensity, fold” value in assay [3] and in assay [4] were 8.57 fold over isotype and 7.05 fold over isotype, respectively.

B9: antibody 305 (antibody, V domains shown)
VH: QVQLVESGGGVVQPGRSLRLSCAASGFTFSSYAMHWVRQAPGKGLEWVAVISYDGSNKYYADSVKGRFTISRDNSKNTLYLQMNSLRAEDTAVYYCAREQTSYDYVWGTLGAYYYYGMDVWGQGTTVTVSS
VL: SSELTQDPAVSVALGQTVRITCQGDSLRSYYASWYQQKPGQAPVLVIYGKNNRPSGIPDRFSGSSSGNTASLTITGAQAEDEADYYCNSRDSSGNHLVFGGGTKLTVL
B9: the “median fluorescence intensity, fold” value in assay [1] came out at 41 fold over isotype; in assay [2] it was 78.9 fold over isotype.

B10: antibody 338 (antibody, V domains shown)
VH: QVQLQESGPGLVKPSETLSLTCAVSGYSISSDYYWGWIRQPPGKGLEWIGSIYHSGSTYYNPSLKSRVTISIDTSKNQFSLKLSSVTAADTAVYYCARDPGNYDILTGIFDYWGQGTLVTVSS
VL: QSALTQPASVSGSPGQSITISCTGTSSDVGVYNYVSWYQQHPGKAPKLMIYDVTNRPSGVSNRFSGSKSGNTASLTISGLQAEDEADYYCSSYTSSSTLAVYVFGTGTKVTVL
Consider B10, for which the “median fluorescence intensity, fold” value in assay [3] worked out at 7.81 fold over isotype; in assay [4], 33.2 fold over isotype.

B11: antibody 302 (antibody, V domains shown)
VH: QVQLVQSGAEVRKPGASVKVSCKVSGYTLSELSMHWVRQAPGKGLEWMGGFDPEDGERMYAQKFQGRVTMTEDTSTDTAYMELSSLRSEDTAIYYCTTDLSYLWSGKLEPDYWYFALWGRGTLVTVSS
VL: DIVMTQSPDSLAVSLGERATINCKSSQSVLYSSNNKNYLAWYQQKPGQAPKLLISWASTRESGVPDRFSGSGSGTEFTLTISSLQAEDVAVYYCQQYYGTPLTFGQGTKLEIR
Consider B11, for which the entries for the “median fluorescence intensity, fold” value in assay [1] and in assay [2] were 26.5 fold over isotype and 45.4 fold over isotype, respectively.

B12: antibody 355 (antibody, V domains shown)
VH: QVHLVESGGGVVQPGRSLRLSCAASGFTFSSFPMHWVRQAPGKGLEWVAVISYDGGDEHYTDSVEGRFTISRDNSLNTLYLQMSSLRLEDTAVYYCARDRYDSSGYYYVSDYWGQGTLITVSS
VL: SYELTQPPSVSVSPGQTARISCSGDALPKQYAYWYQQKPGQAPVLVIYKDSERPSGIPERFSGSSSGTTVTLTISGVQAEDEADYYCQSADSRGTDPWVFGGGTKLTVL
Regarding B12, the “median fluorescence intensity, fold” value in assay [3] worked out at 20.3 fold over isotype; in assay [4], 8.08 fold over isotype.

B13: antibody 298 (antibody, V domains shown)
VH: EVQLVESGGGLVQPGGSLRLSCAASGFTVSSNYMSWVRQAPGKGLEWVSVIYSGGSTYYADSVKGRFTISRDNSKNTLYLQMNSLRAEDTAVYYCAREEGEWEKDYYGMDVWGQGTTVTVSS
VL: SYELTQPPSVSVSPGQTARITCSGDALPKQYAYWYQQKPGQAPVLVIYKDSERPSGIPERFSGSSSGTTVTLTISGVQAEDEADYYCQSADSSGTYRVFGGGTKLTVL
For B13, the “median fluorescence intensity, fold” value came to 35.7 fold over isotype in assay [1] and 66.8 fold over isotype in assay [2].

B14: antibody 286 (antibody, V domains shown)
VH: QVHLVESGGGVVQPGKSLRLSCAGSGFIFSDFGMHWVRQSPGKGLEWVAVVSYDGSVTKYSDSFEGRFTISRDNSKNTLYLQMDSLRPDDTAIYYCAKGQGANLLHYWGKGILVTVSS
VL: DVVLTQSPLSLPVTLGQPASISCRSSESLVYTDGDTYLHWFHQRPGQSPRRLIYKVSNRDSGVPDRFSGSGSGTDFTLKISRVEAEDVGVYYCMQGTHWPFTFGPGTKVDIK
Consider B14, for which the “median fluorescence intensity, fold” value in assay [1] was 28.2 fold over isotype; in assay [2], 6.17 fold over isotype.

B15: antibody 358 (antibody, V domains shown)
VH: QVQLVESGGGVVQPGRSLRLSCAASGFNLNSYAMHWVRQASGKGLEWVSLMSYDGSIKYYADSVKGRFTVSGDNSRNTLFLQMNSLRPDDSALYYCVRGGVSGPNSFDLWGQGTTVTVSS
VL: DVVMTQSPLSLPVTLGQPASISCRSSQSLVYSDGSTYVNWFQQRPGQSPRRLIYKVSNRDSGVPDRFSGSGSGTDFALKISRVEAEDVGVYYCMQGTHWPVTFGQGTKVEIK
Take B15: the “median fluorescence intensity, fold” value in assay [3] worked out at 8.74 fold over isotype; in assay [4] it was 38.4 fold over isotype.

B16: antibody 330 (antibody, V domains shown)
VH: QVQLVESGGGVVQPGRSLRLSCAASGFTFSSYAMHWVRQAPGKGLEWVAVISYDGSNKYYADSVKGRFTISRDNSKNTLYLQMNSLRAEDTAVYYCARDFQYYDFWSGYLTVSSPTSYYGMDVWGQGTTVTVSS
VL: NFMLTQPHSVSESPGKTVTISCTGSSGSIASNYVQWYQQRPGSAPTTVIYEDNQRPSGVPDRFSGSIDSSSNSASLTISGLKTEDEADYYCQSYDSSNVVFGGGTKLTVL
For the molecule B16, the “median fluorescence intensity, fold” value amounted to 56.5 fold over isotype in assay [3] and 22.4 fold over isotype in assay [4].

B17: antibody 310 (antibody, V domains shown)
VH: EVQLVESGGGLVQPGGSLRLSCAASGFTFSSYWMSWVRQAPGKGLEWVANIKQDGSEKYYVDSVKGRFTISRDNAKNSLYLQMNSLRAEDTAVYYCARVGSSSWYFDYWGQGTLVTVSS
VL: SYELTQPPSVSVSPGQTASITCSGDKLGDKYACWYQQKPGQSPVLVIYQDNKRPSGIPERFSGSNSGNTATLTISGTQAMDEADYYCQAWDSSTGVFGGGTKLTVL
Take B17: the results for the “median fluorescence intensity, fold” value in assay [1] and in assay [2] were 28.1 fold over isotype and 5.35 fold over isotype, respectively.

B18: antibody 318 (antibody, V domains shown)
VH: QVQLVESGGGVVPPGRSLSLPCAASGFSFSAYAMHWLRQAPGKGLEWVAVISYDGTVKYVADSVRGRFTISRDNSNNTLYLQMTSLRSDDTAVYYCARDLGALAAAPTVYFVHWGQGTLVTVSS
VL: SYVLTQPPSVSVAPGKTATITCAGEDIGRKSVHWYQQKPGQAPVLVIFYYSDRPSGIPDRFSGSVSGNTATLTIGRVEAGDEADYFCQVWDRTTNHVIFGGGTKVTVL
For B18, the “median fluorescence intensity, fold” value stood at 9.92 fold over isotype in assay [3] and 40.3 fold over isotype in assay [4].

B19: antibody 268 (antibody, V domains shown)
VH: QVQLQESGPGLVKPSQTLSLTCTVSGGSISSGSYYWSWIRQPAGKGLEWIGRIYTSGSTNYNPSLKSRVTISVDTSKNQFSLKLSSVTAADTAVYYCARELVGGLLGTIDYWGQGTLVTVSS
VL: DIQLTQSPSFLSASVGDRVTITCRASQGISSYLAWYQQKPGKAPKLLIYAASTLQSGVPSRFSGSGSGTEFTLTISSLQPEDFATYYCQQLNSYPYTFGQGTKLEIK
On to B19, for which the “median fluorescence intensity, fold” value in assay [1] was found to be 8.9 fold over isotype; in assay [2], 8.18 fold over isotype.
